Source: the supplement of paper PMC10567573

B1: SPDEF (parent)
chain: YPEDSSWAAKAPGASSREEPPEEP
B2: WEE1 (parent)
chain: INPFTPDSLLLHSSGQCRRRKRTY

Variants of: B1
Assay: protein stability index of a GFP-peptide fusion (GPS, HEK-293T) (PSI 1-6); higher = more stable
Conditions: c terminus: a fixed tail appended
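Note: lentivirally expressed fusions sorted by FACS into six bins by GFP to DsRed ratio, PSI derived from sequencing read proportions per bin multiplied by bin number.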

Variant | protein stability index
YPENSSWAAKAPGASSREEPPEEP | 2.4
YPETSSWAAKAPGASSREEPPEEP | 2.39
YPEISSWAAKAPGASSREEPPEEP | 3.25
YPEQSSWAAKAPGASSREEPPEEP | 3.09
YPEPSSWAAKAPGASSREEPPEEP | 2.09
YPGDSSWAAKAPGASSREEPPEEP | 2.72
YPRDSSWAAKAPGASSREEPPEEP | 3.78
YPIDSSWAAKAPGASSREEPPEEP | 4.92
YPDDSSWAAKAPGASSREEPPEEP | 4.24
YPHDSSWAAKAPGASSREEPPEEP | 3.05
YPMDSSWAAKAPGASSREEPPEEP | 2.49
YPNDSSWAAKAPGASSREEPPEEP | 2.49
YPWDSSWAAKAPGASSREEPPEEP | 2.18
YPKDSSWAAKAPGASSREEPPEEP | 3.9
YPQDSSWAAKAPGASSREEPPEEP | 3.24
YPYDSSWAAKAPGASSREEPPEEP | 2.37
YPFDSSWAAKAPGASSREEPPEEP | 2.99
YPSDSSWAAKAPGASSREEPPEEP | 2.66
YPADSSWAAKAPGASSREEPPEEP | 2.01
YPPDSSWAAKAPGASSREEPPEEP | 3.15
YPTDSSWAAKAPGASSREEPPEEP | 3.82

Variant | protein stability index
YPVDSSWAAKAPGASSREEPPEEP | 4.09
YPLDSSWAAKAPGASSREEPPEEP | 4.69
YPEDSAWAAKAPGASSREEPPEEP | 3.6
YPEDSEWAAKAPGASSREEPPEEP | 5.03
YHEDSSWAAKAPGASSREEPPEEP | 2.25
YMEDSSWAAKAPGASSREEPPEEP | 5.18
YNEDSSWAAKAPGASSREEPPEEP | 5.78
YREDSSWAAKAPGASSREEPPEEP | 5.43
YDEDSSWAAKAPGASSREEPPEEP | 5.73
YWEDSSWAAKAPGASSREEPPEEP | 4.68
YGEDSSWAAKAPGASSREEPPEEP | 3.9
YIEDSSWAAKAPGASSREEPPEEP | 2.53
YKEDSSWAAKAPGASSREEPPEEP | 5.1
YTEDSSWAAKAPGASSREEPPEEP | 2.95
YCEDSSWAAKAPGASSREEPPEEP | 1.94
YAEDSSWAAKAPGASSREEPPEEP | 1.79
YFEDSSWAAKAPGASSREEPPEEP | 5.57
CPEDSSWAAKAPGASSREEPPEEP | 5.04
HPEDSSWAAKAPGASSREEPPEEP | 5.7
DPEDSSWAAKAPGASSREEPPEEP | 5.97
FPEDSSWAAKAPGASSREEPPEEP | 3.03

Variant | protein stability index
TPEDSSWAAKAPGASSREEPPEEP | 5.68
MPEDSSWAAKAPGASSREEPPEEP | 5.93
KPEDSSWAAKAPGASSREEPPEEP | 5.73
VPEDSSWAAKAPGASSREEPPEEP | 5.76
SPEDSSWAAKAPGASSREEPPEEP | 5.55
LPEDSSWAAKAPGASSREEPPEEP | 5.79
NPEDSSWAAKAPGASSREEPPEEP | 5.56
YPEDMSWAAKAPGASSREEPPEEP | 4.58
YPEDTSWAAKAPGASSREEPPEEP | 4.55
YPEDVSWAAKAPGASSREEPPEEP | 4.71
YPEDKSWAAKAPGASSREEPPEEP | 4.49
YPEDCSWAAKAPGASSREEPPEEP | 3.24
YPEDWSWAAKAPGASSREEPPEEP | 3.99
YPEDESWAAKAPGASSREEPPEEP | 5.72
YPEDQSWAAKAPGASSREEPPEEP | 4.03
YPEDRSWAAKAPGASSREEPPEEP | 4.26
YPEDHSWAAKAPGASSREEPPEEP | 3.99
YPEDFSWAAKAPGASSREEPPEEP | 3.86
YPEDASWAAKAPGASSREEPPEEP | 4.69
YPEDPSWAAKAPGASSREEPPEEP | 4.06
YPEDNSWAAKAPGASSREEPPEEP | 4.16

Variants of: B2
Assay: as above
Conditions: c terminus: a fixed tail appended

Variant | protein stability index
INPFTPDSLLLHSSGQCRRFKRTY | 2.48
INPFTPDSLLLHSSGQCRRSKRTY | 2.97
INPFTPDSLLLHSSGQCRREKRTY | 3.15
INPFTPDSLLLHSSGQCRRLKRTY | 2.75
INPFTPDSLLLHSSGQCRRGKRTY | 3.41
INPFTPDSLLLHSSGQCRRMKRTY | 2.85
INPFTPDSLLLHSSGQCRRAKRTY | 3.08
INPFTPDSLLLHSSGQCRRTKRTY | 3.32
INPFTPDSLLLHSSGQCRRQKRTY | 2.81
INPFTPDSLLLHSSGQCRRIKRTY | 2.95
INPFTPDSLLLHSSGQCRRYKRTY | 2.61
INPFTPDSLLLHSSGQCRRHKRTY | 3.62
INPFTPDSLLLHSSGQCRRDKRTY | 3.12
INPFTPDSLLLHSSGQCRRNKRTY | 3.45
INPFTPDSLLLHSSGQCRRPKRTY | 3.12
INPFTPDSLLLHSSGQCRRKKRTY | 3.23
INPFTPDSLLLHSSGQCRRWKRTY | 1.82
INPFTPDSLLLHSSGQCRRCKRTY | 2.5
INPFTPDSLLLHSSGQCRRVKRTY | 2.94
INPFTPDSLLLHSSGQCRRRKDTY | 3.37
INPFTPDSLLLHSSGQCRRRKMTY | 3.08
INPFTPDSLLLHSSGQCRRRKYTY | 2.87
INPFTPDSLLLHSSGQCRRRKKTY | 3.59
INPFTPDSLLLHSSGQCRRRKATY | 3.67
INPFTPDSLLLHSSGQCRRRKHTY | 3.5

Variant | protein stability index
INPFTPDSLLLHSSGQCRRRKLTY | 2.92
INPFTPDSLLLHSSGQCRRRKFTY | 2.71
INPFTPDSLLLHSSGQCRRRKETY | 3.1
INPFTPDSLLLHSSGQCRRRKPTY | 3.23
INPFTPDSLLLHSSGQCRRRKVTY | 2.8
INPFTPDSLLLHSSGQCRRRKSTY | 3.31
INPFTPDSLLLHSSGQCRRRKGTY | 3.55
INPFTPDSLLLHSSGQCRRRKCTY | 3.17
INPFTPDSLLLHSSGQCRRRKNTY | 3.91
INPFTPDSLLLHSSGQCRRRKWTY | 2.27
INPFTPDSLLLHSSGQCRRRKQTY | 3.19
INPFTPDSLLLHSSGQCRRRKTTY | 3.45
INPFTPDSLLLHSSGQCRRRKITY | 3.11
INPFTPDSLLLHSSGQCRRRLRTY | 2.72
INPFTPDSLLLHSSGQCRRRCRTY | 2.02
INPFTPDSLLLHSSGQCRRRFRTY | 2.42
INPFTPDSLLLHSSGQCRRRMRTY | 3.25
INPFTPDSLLLHSSGQCRRRNRTY | 3.59
INPFTPDSLLLHSSGQCRRRPRTY | 3.08
INPFTPDSLLLHSSGQCRRRVRTY | 3.16
INPFTPDSLLLHSSGQCRRRHRTY | 3.38
INPFTPDSLLLHSSGQCRRRQRTY | 2.46
INPFTPDSLLLHSSGQCRRRYRTY | 2.48
INPFTPDSLLLHSSGQCRRRWRTY | 2.4
INPFTPDSLLLHSSGQCRRRGRTY | 3.58

Variant | protein stability index
INPFTPDSLLLHSSGQCRRRERTY | 3.16
INPFTPDSLLLHSSGQCRRRIRTY | 3
INPFTPDSLLLHSSGQCRRRRRTY | 3.11
INPFTPDSLLLHSSGQCRRRARTY | 3.77
INPFTPDSLLLHSSGQCRRRSRTY | 3.18
INPFTPDSLLLHSSGQCRRRDRTY | 2.9
INPFTPDSLLLHSSGQCRRRTRTY | 2.83
INPFTPDSLLLHSSGQCRCRKRTY | 3.01
INPFTPDSLLLHSSGQCRHRKRTY | 3.32
INPFTPDSLLLHSSGQCRWRKRTY | 2.66
INPFTPDSLLLHSSGQCRARKRTY | 3.08
INPFTPDSLLLHSSGQCRTRKRTY | 2.78
INPFTPDSLLLHSSGQCRKRKRTY | 3.32
INPFTPDSLLLHSSGQCRFRKRTY | 2.62
INPFTPDSLLLHSSGQCRQRKRTY | 3.27
INPFTPDSLLLHSSGQCRSRKRTY | 3.78
INPFTPDSLLLHSSGQCRDRKRTY | 3.52
INPFTPDSLLLHSSGQCRLRKRTY | 3.03
INPFTPDSLLLHSSGQCRPRKRTY | 3.03
INPFTPDSLLLHSSGQCRERKRTY | 3.8
INPFTPDSLLLHSSGQCRGRKRTY | 3.34
INPFTPDSLLLHSSGQCRVRKRTY | 2.69
INPFTPDSLLLHSSGQCRIRKRTY | 3.88
INPFTPDSLLLHSSGQCRNRKRTY | 3.38
INPFTPDSLLLHSSGQCRYRKRTY | 2.83

Variant | protein stability index
INPFTPDSLLLHSSGQCRMRKRTY | 2.91
INPFTPDSLLLHSSGQCRRRKRTV | 3.95
INPFTPDSLLLHSSGQCRRRKRTL | 3.04
INPFTPDSLLLHSSGQCRRRKRTN | 3.75
INPFTPDSLLLHSSGQCRRRKRTD | 4.27
INPFTPDSLLLHSSGQCRRRKRTA | 4.33
INPFTPDSLLLHSSGQCRRRKRTQ | 3.69
INPFTPDSLLLHSSGQCRRRKRTT | 3.96
INPFTPDSLLLHSSGQCRRRKRTK | 4.27
INPFTPDSLLLHSSGQCRRRKRTP | 3.81
INPFTPDSLLLHSSGQCRRRKRTI | 3.01
INPFTPDSLLLHSSGQCRRRKRTH | 3.75
INPFTPDSLLLHSSGQCRRRKRTF | 3.12
INPFTPDSLLLHSSGQCRRRKRTR | 4.52
INPFTPDSLLLHSSGQCRRRKRTC | 3.8
INPFTPDSLLLHSSGQCRRRKRTS | 4.45
INPFTPDSLLLHSSGQCRRRKRTE | 3.13
INPFTPDSLLLHSSGQCRRRKRTW | 3.36
INPFTPDSLLLHSSGQCRRRKRTM | 3.48
INPFTPDSLLLHSSGQCRRRKRTG | 4.07
INPFTPDSLLLHSSGQCSRRKRTY | 3.41
INPFTPDSLLLHSSGQCKRRKRTY | 3.26
INPFTPDSLLLHSSGQCVRRKRTY | 3.83
INPFTPDSLLLHSSGQCWRRKRTY | 2.29
INPFTPDSLLLHSSGQCTRRKRTY | 3.48

Variant | protein stability index
INPFTPDSLLLHSSGQCYRRKRTY | 3.58
INPFTPDSLLLHSSGQCPRRKRTY | 3.57
INPFTPDSLLLHSSGQCQRRKRTY | 3.63
INPFTPDSLLLHSSGQCMRRKRTY | 2.81
INPFTPDSLLLHSSGQCLRRKRTY | 3.2
INPFTPDSLLLHSSGQCNRRKRTY | 3.12
INPFTPDSLLLHSSGQCRRRKRMY | 3.6
INPFTPDSLLLHSSGQCRRRKRFY | 3.36
INPFTPDSLLLHSSGQCRRRKRDY | 4.11
INPFTPDSLLLHSSGQCRRRKRKY | 4.29
INPFTPDSLLLHSSGQCRRRKRGY | 3.87
INPFTPDSLLLHSSGQCRRRKRYY | 3.38
INPFTPDSLLLHSSGQCRRRKRPY | 3.26
INPFTPDSLLLHSSGQCRRRKRCY | 2.7
INPFTPDSLLLHSSGQCRRRKRQY | 3.42
INPFTPDSLLLHSSGQCRRRKRLY | 3.5
INPFTPDSLLLHSSGQCRRRKRIY | 2.78
INPFTPDSLLLHSSGQCRRRKRRY | 3.56
INPFTPDSLLLHSSGQCRRRKRVY | 3.06
INPFTPDSLLLHSSGQCRRRKRSY | 3.93
INPFTPDSLLLHSSGQCRRRKRHY | 3.7
INPFTPDSLLLHSSGQCRRRKRWY | 2.79
INPFTPDSLLLHSSGQCRRRKRAY | 3.79
INPFTPDSLLLHSSGQCRRRKREY | 3.37
INPFTPDSLLLHSSGQCRRRKRNY | 3.5
